Results as given in article PMC7409549, “A time-resolved interaction analysis of Bem1 reconstructs the flow of Cdc42 during polar growth” (Life Science Alliance, 2020).

T1: 6xHIS-Nba1_(202-289)-SNAP (S. cerevisiae, UniProt Q08229 202-289)
T1 construct: Nba1, S. cerevisiae, residues 202-289; also called the PxxP site; source: E. coli BL21DE3, purified (HisTrap HP, size-exclusion chromatography); not shown: 6xHIS, N-terminal, kept; SNAP-tag, C-terminal, kept
T1 sequence (looked up): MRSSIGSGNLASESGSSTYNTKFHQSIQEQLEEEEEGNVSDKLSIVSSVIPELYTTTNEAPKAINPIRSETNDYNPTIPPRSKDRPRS

B1: GST-SH3_(Boi1) (domain or fragment, S. cerevisiae, UniProt P38041 13-77, looked up)
chain: KSFPLYIAVNQYSKRMEDELNMKPGDKIKVITDDGEYNDGWYYGRNLRTKEEGLYPAVFTKRIAI
notes: SH3 domain of Boi1, S. cerevisiae; also called GST fusion to SH3_(Boi1); source: E. coli BL21DE3, purified (GSTrap, Superdex 200) for SPR; coupled to glutathione beads from extract for the pull-down; not shown: GST, N-terminal, kept
B2: GST-SH3_(Boi2) (domain or fragment, S. cerevisiae, UniProt P39969 43-107, looked up)
chain: GNFPMYIAINEYFKRMEDELDMKPGDKIKVITDDEEYKDGWYFGRNLRTNEEGLYPVVFTQKITV
notes: SH3 domain of Boi2, S. cerevisiae; source: E. coli BL21DE3, purified (GSTrap, Superdex 200); not shown: GST, N-terminal, kept

Target: T1, 6xHIS-Nba1_(202-289)-SNAP
Assay: SPR; Biacore X100; GST-SH3 domains captured on an anti-GST antibody CM5 chip, free GST on the reference cell; 6xHis-Nba1_(202-289)-SNAP as analyte; HBSEP buffer (10 mM Hepes, 150 mM NaCl, 3 mM EDTA, 0.05% Tween 20, pH 7.4); equilibrium KD
Conditions: both partners purified

| Binder | Kd [nM] |
| --- | --- |
| B1 | ~740 |
| B2 | 1970 |
